Laboratory results published in PMC4644379.

Key:
[1] = molecular target: NKG2D on human NK cells (human (endogenous in NK cells and CD8+ T cells from PBMC)) (UniProt P26718)
[2] = molecular target: NKG2D on human NK cells (human (endogenous in NK cells and CD8+ T cells from PBMC)) (UniProt P26718); remark: listed apart in the source
[3] = molecular target: NKG2D on human NK cells (human (endogenous in NK cells and CD8+ T cells from PBMC)) (UniProt P26718); remark: listed apart in the source
[4] = molecular target: NKG2D on human NK cells (human (endogenous in NK cells and CD8+ T cells from PBMC)) (UniProt P26718); remark: listed apart in the source
[5] = molecular target: NKG2D on human NK cells (human (endogenous in NK cells and CD8+ T cells from PBMC)) (UniProt P26718); remark: listed apart in the source
[6] = molecular target: NKG2D on human NK cells (human (endogenous in NK cells and CD8+ T cells from PBMC)) (UniProt P26718); remark: listed apart in the source
[7] = molecular target: NKG2D on human NK cells (human (endogenous in NK cells and CD8+ T cells from PBMC)) (UniProt P26718); remark: listed apart in the source

Sequence of UniProt P26718 (P26718 whole entry): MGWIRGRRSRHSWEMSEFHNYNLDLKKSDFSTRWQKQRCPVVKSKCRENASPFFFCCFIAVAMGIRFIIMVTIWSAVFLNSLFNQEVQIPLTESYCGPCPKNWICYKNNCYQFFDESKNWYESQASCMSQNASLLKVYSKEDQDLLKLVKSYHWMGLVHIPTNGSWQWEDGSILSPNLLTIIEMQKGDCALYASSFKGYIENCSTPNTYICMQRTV

Row | IFNγ release (ELISA) of NK cells, effect of MICA expression intensity on target clones (pg/ml per MFI unit of MICA) [1] | intracellular IFNγ (MFI) in CD56brightCD16- NK cells co-cultured 4 h with L cell clones, difference to L-MICA-129Met (MFI units lower than with L-MICA-129Met) [2] | percentage of IFNγ+ CD56brightCD16- NK cells co-cultured 4 h with L cell clones, difference to L-MICA-129Met (%-points less than with L-MICA-129Met) [2] | regression coefficient of the MFI of IFNγ in CD56brightCD16- NK cells against MICA expression intensity [2] | regression coefficient of the proportion of IFNγ+ CD56brightCD16- NK cells against MICA expression intensity [2] | degranulation of NK cells exposed to L cell clones: MFI of CD107a, difference to L-MICA-129Met, adjusted for MICA expression (MFI units lower than with L-MICA-129Met) [3] | degranulation of NK cells exposed to L cell clones: percentage of CD107a+ NK cells, difference to L-MICA-129Met, adjusted for MICA expression (%-points less than with L-MICA-129Met) [3] | regression coefficient of the MFI of CD107a on NK cells against MICA expression intensity on target clones [3] | down-regulation of NKG2D on NK cells co-cultured 4 and 24 h with L cell clones: MFI of NKG2D against L-con [4] | down-regulation of NKG2D on NK cells co-cultured 4 and 24 h with L cell clones: percentage of NKG2D+ NK cells against L-con [4] | relative lysis of L cell clones by LAK cells (51Cr release, E:T 200:1), difference to L-MICA-129Met, adjusted for MICA expression (%-points reduced against L-MICA-129Met) [5] | IFNγ release (ELISA) of NK cells co-cultured 24 h with L cell clones, difference to L-MICA-129Val, adjusted for MICA expression (pg/ml higher than with L-MICA-129Val) [1] | IFNγ release (ELISA) of NK cells, effect of MICA expression intensity on target clones (pg/ml per MFI unit) [1] | NKG2D expression on CD56brightCD16+ NK cells after 4 and 24 h, lower with L-MICA-129Met than with L-MICA-129Val clones (%-points lower than with L-MICA-129Val) [6] | NKG2D expression on CD56brightCD16- NK cells after 4 and 24 h, lower with L-MICA-129Met than with L-MICA-129Val clones (%-points lower than with L-MICA-129Val) [6] | NKG2D expression on CD56dimCD16+ NK cells after 4 and 24 h, lower with L-MICA-129Met than with L-MICA-129Val clones (%-points lower than with L-MICA-129Val) [6] | down-regulation of NKG2D on NK cells: percentage of NKG2D+ cells, difference between L-MICA-129Met and L-MICA-129Val targets (%-points against L-MICA-129Val) [4] | down-regulation of NKG2D on CD8+ T cells co-cultured with L cell clones: MFI of NKG2D, difference to L-MICA-129Val (MFI units more than with L-MICA-129Val) [7] | down-regulation of NKG2D on CD8+ T cells co-cultured with L cell clones: proportion of NKG2D+CD3+CD8+ cells, difference to L-MICA-129Val (%-points more than with L-MICA-129Val) [7] | Substance | regression coefficient of killing by LAK cells against MICA expression intensity on target clones [5]
1 | 1.1 | 12.5 | 7.5 | 0.09 | 0.14 | 38.5 | 10.1 | 0.29 | 11.8 MFI units | 9.5 %-points | 13 | – | – | – | – | – | – | – | – | MICA-129Val variant (MICA*00701 with valine at position 129) expressed on L cells (from UniProt Q29983 24-383) (ligand) | 0.126
2 | – | – | – | -1.11 | – | – | – | 0.05 | 13.7 MFI units | 19.4 %-points | – | 176 | 0.142 | 16.2 | 15.8 | 19.5 | -9.3 | 12.1 | 35.8 | MICA-129Met variant (MICA*00701 allele) expressed on L cells (from UniProt Q29983 24-383) (ligand) | -0.0834
